The nature of test [1]: β1,3-N-acetylglucosaminyl transferase activity of secreted FLAG peptide-fused polypeptides (method of Example 8). The class given is biochemical, human. How it is done:
(§1) Specifically, the reaction was carried out at 37° C. for 16 hours in 30 μl of an assay solution [200 mmol/l of MOPS (pH 7.5), 50 mmol/l of UDP-GlcNAc (SIGMA), 20 mmol/l of MnCl2, 0.3% Triton X-100, 50 μM of a pyridylaminated sugar chain substrate and 10 μl of the above cell lysate], and then products were detected by a high performance liquid chromatography (HPLC).
As a substrate, lacto-N-neotetraose (Galβ1-4GlcNAcβ1-3Galβ1-4Glc; hereinafter referred to as “LNnT”) fluorescence-labeled with aminopyridine was used.
After carrying out the reaction by using the assay solution with or without UDP-GlcNAc (sugar donor), HPLC was carried out and peaks appeared only in the assay solution containing UDP-GlcNAc were defined as products.
The assay solution after completion of the reaction was treated at 100° C. for 5 minutes and then centrifuged at 10,000×g for 5 minutes, and a portion (5 μl) of the thus obtained supernatant was applied to HPLC.
The HPLC was carried out by using TSK-gel ODS-80Ts column (4.6×300 mm; Tosoh); 0.02 M ammonium acetate buffer (pH 4.0) was used as an eluate at elution temperature 50° C. and flow rate 0.5 ml/min.
(§2) Products were detected by using a fluorescence spectrum photometer FP-920 (JASCO Corporation) (excitation wavelength 320 nm, radiation wavelength 400 nm). […]
(§3) The amount of products was measured by using pyridylaminated lactose as a standard and comparing their fluorescence intensity.
A β1,3-N-acetylglucosaminyl transferase activity of FLAG peptide-fused G4 polypeptide expressed as a secreted form in Namalwa KJM-1 cell was measured by using 15 μl of the eluate prepared in the above (4). […] As a result, a β1,3-N-acetylglucosaminyl transferase activity was detected when the eluate derived from the culture supernatant of pAMoF2-G4-introduced Namalwa KJM-1 cell was used. […] On the other hand, the activity was not detected when the eluate derived from the culture supernatant of Namalwa KJM-1 cell transformed by the vector pAMoF2 was used.
A β1,3-N-acetylglucosaminyl transferase activity of FLAG peptide-fused G4 polypeptide produced as a secreted form in the insect cell was measured using 15 μl of the eluate prepared in the above (3). […] As a result, a β1,3-N-acetylglucosaminyl transferase activity was detected when the eluate derived from the culture supernatant of the insect cell transformed by pVL1393-F2G4 was used.
A β1,3-N-acetylglucosaminyl transferase activity was also detected when the resin before elution was used. […]
A β1,3-N-acetylglucosaminyl transferase activity of FLAG peptide-fused G3 polypeptide was measured by using 15 μl of the purified sample prepared in the above (3). […] As a result, a β1,3-N-acetylglucosaminyl transferase activity was detected. […]

Test [2] can be described thus: β1,3-N-acetylglucosaminyl transferase activity in cell extract of stable transformants (Example 8). The class given is biochemical, human. The following applies: cell extract of Namalwa KJM-1 transformed by expression plasmid; 50 μM pyridylaminated LNnT; 37° C., 16 hours; control plasmid cells 1.8%. The protocol: The β1,3-N-acetylglucosaminyl transferase activity was examined by using a cell extract of stable transformants which were transformed by a plasmid capable of expressing G3, G4, G4-2 or G7 polypeptide obtained in Example 7.
The transformed cells (about 2×10^7) were transferred into a microtube (1.5 ml: manufactured by Eppendorf) and centrifuged (550×g for 7 minutes) to collect the cells. The cells were washed with 0.9 ml of PBS, the washed cells were suspended in a solution […] composed of 20 mmol/l HEPES (pH 7.2) and 1% Triton X-100 and then the cells were disrupted by a sonicator (Bioruptor; manufactured by Cosmo Bio). After standing at 4° C. for 1 hour, a supernatant was obtained by centrifugation (550×g for 7 minutes). The supernatant was used as an enzyme sample. The β1,3-N-acetylglucosaminyl transferase activity was measured by using this enzyme sample.
Preparation of a pyridylaminated sugar chain substrates and activity measurement were carried out in accordance with known methods [Japanese Published Unexamined Patent Application No. 181757/94, Japanese Published Unexamined Patent Application No. 823021/94, J. Biol. Chem., 269, 14730 (1994), J. Biol. Chem., 267, 2994 (1992)].
as §1
As a substrate, lacto-N-neotetraose (Galβ1-4GlcNAcβ1-3Galβ1-4Glc; hereinafter referred to as “LNnT”) fluorescence-labeled with aminopyridine was used. […]
as §2, §3

The mark [3] stands for this setting: 15 μl eluate/purified sample from insect cell (Sf21) culture supernatant.

B1: FLAG peptide-fused G4 polypeptide: secreted G4, 38th glutamic acid to 372nd tyrosine of SEQ ID NO:2, with immunoglobulin signal sequence and FLAG peptide (protein, listed as Homo sapiens)
chain: EQPPAIPEALAWPTPPTRPAPAPCHANTSMVTHPDFATQPQHVQNFLLYRHCRHFPLLQDVPPSKCAQPVFLLLVIKSSPSNYVRRELLRRTWGRERKVRGLQLRLLFLVGTASNPHEARKVNRLLELEAQTHGDILQWDFHDSFFNLTLKQVLFLQWQETRCANASFVLNGDDDVFAHTDNMVFYLQDHDPGRHLFVGQLIQNVGPIRAFWSKYYVPEVVTQNERYPPYCGGGGFLLSRFTAAALRRAAHVLDIFPIDDVFLGMCLELEGLKPASHSGIRTSGVRAPSQHLSSFDPCFYRDLLLVHRFLPYEMLLMWDALNQPNLTCGNQTQIY
modifications: Ig signal sequence and FLAG peptide
For B1, the “ratio of the substrate converted into the product” value in test [1] (15 μl eluate from culture supernatant of pAMoF2-G4-introduced Namalwa KJM-1 cell) is on record as 0.51%; in test [1] (setting [3]), 12.1%; in test [1] (insect cell product, resin before elution (enzyme adsorbed to Anti-FLAG M1 Affinity Gel)), 21.0%.

B2: G3: polypeptide containing 397 amino acids, SEQ ID NO:1; novel β1,3-N-acetylglucosaminyl transferase (protein, listed as Homo sapiens)
chain: MSVGRRRIKLLGILMMANVFIYFIMEVSKSSSQEKNGKGEVIIPKEKFWKISTPPEAYWNREQEKLNRQYNPILSMLTNQTGEAGRLSNISHLNYCEPDLRVTSVVTGFNNLPDRFKDFLLYLRCRNYSLLIDQPDKCAKKPFLLLAIKSLTPHFARRQAIRESWGQESNAGNQTVVRVFLLGQTPPEDNHPDLSDMLKFESEKHQDILMWNYRDTFFNLSLKEVLFLRWVSTSCPDTEFVFKGDDDVFVNTHHILNYLNSLSKTKAKDLFIGDVIHNAGPHRDKKLKYYIPEVVYSGLYPPYAGGGGFLYSGHLALRLYHITDQVHLYPIDDVYTGMCLQKLGLVPEKHKGFRTFDIEEKNKNNICSYVDLMLVHSRKPQEMIDIWSQLQSAHLKC
In the case of B2, the “ratio of a substrate (LNnT) converted into a product (GlcNAcβ1-3Galβ1-4GlcNAcβ1-3Galβ1-4Glc)” value (from here on “ratio of a substrate”) in test [2] is given as 2.7%.

B3: FLAG peptide-fused G3 polypeptide: secreted G3, 31st serine to 397th cysteine of SEQ ID NO:1, with immunoglobulin signal sequence and FLAG peptide (protein, listed as Homo sapiens)
chain: SSQEKNGKGEVIIPKEKFWKISTPPEAYWNREQEKLNRQYNPILSMLTNQTGEAGRLSNISHLNYCEPDLRVTSVVTGFNNLPDRFKDFLLYLRCRNYSLLIDQPDKCAKKPFLLLAIKSLTPHFARRQAIRESWGQESNAGNQTVVRVFLLGQTPPEDNHPDLSDMLKFESEKHQDILMWNYRDTFFNLSLKEVLFLRWVSTSCPDTEFVFKGDDDVFVNTHHILNYLNSLSKTKAKDLFIGDVIHNAGPHRDKKLKYYIPEVVYSGLYPPYAGGGGFLYSGHLALRLYHITDQVHLYPIDDVYTGMCLQKLGLVPEKHKGFRTFDIEEKNKNNICSYVDLMLVHSRKPQEMIDIWSQLQSAHLKC
modifications: Ig signal sequence and FLAG peptide
Regarding B3, the “ratio of the substrate converted into the product” value in test [1] (setting [3]) came out at 100%.

B4: G4: polypeptide composed of 372 amino acids, SEQ ID NO:2; novel β1,3-N-acetylglucosaminyl transferase (protein, listed as Homo sapiens)
chain: MKYLRHRRPNATLILAIGAFTLLLFSLLVSPPTCKVQEQPPAIPEALAWPTPPTRPAPAPCHANTSMVTHPDFATQPQHVQNFLLYRHCRHFPLLQDVPPSKCAQPVFLLLVIKSSPSNYVRRELLRRTWGRERKVRGLQLRLLFLVGTASNPHEARKVNRLLELEAQTHGDILQWDFHDSFFNLTLKQVLFLQWQETRCANASFVLNGDDDVFAHTDNMVFYLQDHDPGRHLFVGQLIQNVGPIRAFWSKYYVPEVVTQNERYPPYCGGGGFLLSRFTAAALRRAAHVLDIFPIDDVFLGMCLELEGLKPASHSGIRTSGVRAPSQHLSSFDPCFYRDLLLVHRFLPYEMLLMWDALNQPNLTCGNQTQIY
Turning to B4, the “ratio of a substrate” value in test [2] is on record as 2.8%.

B5: G4-2: polypeptide containing 372 amino acids, SEQ ID NO:3; 328th amino acid Arg instead of His (protein, listed as Homo sapiens)
chain: MKYLRHRRPNATLILAIGAFTLLLFSLLVSPPTCKVQEQPPAIPEALAWPTPPTRPAPAPCHANTSMVTHPDFATQPQHVQNFLLYRHCRHFPLLQDVPPSKCAQPVFLLLVIKSSPSNYVRRELLRRTWGRERKVRGLQLRLLFLVGTASNPHEARKVNRLLELEAQTHGDILQWDFHDSFFNLTLKQVLFLQWQETRCANASFVLNGDDDVFAHTDNMVFYLQDHDPGRHLFVGQLIQNVGPIRAFWSKYYVPEVVTQNERYPPYCGGGGFLLSRFTAAALRRAAHVLDIFPIDDVFLGMCLELEGLKPASHSGIRTSGVRAPSQRLSSFDPCFYRDLLLVHRFLPYEMLLMWDALNQPNLTCGNQTQIY
Regarding B5, the “ratio of a substrate” value in test [2] turned out to be 2.8%.
